Like-named read-outs stand apart in the source and are kept apart here. One block for each binder: values may come before it.
Key:
Assay in all cases: SPR, 25C
hIL-36R-His [1] = target: T1, hIL-36R-His (human)
T1 chain: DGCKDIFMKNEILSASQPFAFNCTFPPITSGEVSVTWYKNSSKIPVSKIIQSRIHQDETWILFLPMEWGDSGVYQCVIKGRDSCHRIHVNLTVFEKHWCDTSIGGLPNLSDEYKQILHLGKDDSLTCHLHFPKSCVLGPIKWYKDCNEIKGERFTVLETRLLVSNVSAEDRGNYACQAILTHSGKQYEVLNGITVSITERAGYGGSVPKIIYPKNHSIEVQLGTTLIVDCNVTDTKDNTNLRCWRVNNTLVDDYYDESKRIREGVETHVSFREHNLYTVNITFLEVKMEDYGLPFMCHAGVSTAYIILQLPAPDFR

hIL-36R-His [2] = target: T1, hIL-36R-His
hIL-36R-His [3] = target: T1, hIL-36R-His
hIL-1R3-His [4] = target: hIL-1R3-His (human)
Chain of hIL-1R3-His (human) (chain, as listed by the source): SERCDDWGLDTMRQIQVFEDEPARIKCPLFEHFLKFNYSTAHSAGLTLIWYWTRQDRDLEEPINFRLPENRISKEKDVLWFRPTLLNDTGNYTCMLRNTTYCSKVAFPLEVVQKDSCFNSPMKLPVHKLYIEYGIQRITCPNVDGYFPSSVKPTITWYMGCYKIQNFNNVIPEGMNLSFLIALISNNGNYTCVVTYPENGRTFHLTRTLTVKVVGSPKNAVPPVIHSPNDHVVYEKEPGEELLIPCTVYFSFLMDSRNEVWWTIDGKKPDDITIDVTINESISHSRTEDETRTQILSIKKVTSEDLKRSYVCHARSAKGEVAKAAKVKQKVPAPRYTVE

hIL-1R3-His [5] = target: hIL-1R3-His (human); remark: listed apart in the source

B3: R49E11VH-h3+L26B11VK (antibody, V domains shown)
VH: QVQLVQSGAEVKKPGASVKVSCKASGYSFTSSWIHWVRQAPGQGLEWMGEINPGSGRSNYNENFQGRVTMTVDTSISTAYMELSRLRSDDTAVYYCTVVFYGEPYFPFWGQGTLVTVSS
VL: EIVLTQSPGTLSLSPGERATLSCRASQSVIYSYLAWYQQKPGQAPRLLIYSASKRASGIPDRFSGSGSGTDFTLTISRLEPEDFAVYYCQQHAGIPVTFGQGTKVEIK
- Kd (hIL-36R-His [3]): 2.91 nM

B5: Common light chain bispecific antibody, IL-1R3 arm (R1B9VH-h1+L36E9VK) (antibody, V domains shown)
VH: EVQLVESGGGLVQPGGSLRLSCAASGFTFSSYAMSWVRQAPGKGLVWVAEISRGGSHTYYPDTVTGRFTISRDNAKNTLYLQMNSLRAEDTAVYYCARSYGNYPFDYWGQGTTVTVSS
VL: EIVLTQSPGTLSLSPGERATLSCRASQSVIGSYLAWYQQKPGQAPRLLIYSASKLASGIPDRFSGSGSGTDFTLTISRLEPEDFAVYYCQQDTRYPITFGQGTKVEIK
- Kd (hIL-1R3-His [5]): 1.44 nM

Second part, the binder after the results:

- Kd (hIL-36R-His [1]): 1.29 nM
B1: Common light chain bispecific antibody, IL-36R arm (R72B7VH+L36E9VK) (antibody, V domains shown)
VH: QVQLVQSGAEVKKPGASVKVSCKASGYSFTSSWIHWVKQAPGQGLEWMGEINPGNVRSNYNENFRNKVTMTVDTSISTAYMELSRLRSDDTAVYYCTVINYGEPYFASWGQGTLVTVSS
VL: EIVLTQSPGTLSLSPGERATLSCRASQSVIGSYLAWYQQKPGQAPRLLIYSASKLASGIPDRFSGSGSGTDFTLTISRLEPEDFAVYYCQQDTRYPITFGQGTKVEIK

- Kd (hIL-36R-His [2]): 0.669 nM
B2: Crossmab bispecific antibody, IL-36R arm (antibody, V domains shown)
VH: QVQLVQSGAEVKKPGASVKVSCKASGYSFTSSWIHWVRQAPGQGLEWMGEINPGSGRSNYNENFQGRVTMTVDTSISTAYMELSRLRSDDTAVYYCTVVFYGEPYFPFWGQGTLVTVSS
VL: EIVLTQSPGTLSLSPGERATLSCRASQSVIYSYLAWYQQKPGQAPRLLIYSASKRASGIPDRFSGSGSGTDFTLTISRLEPEDFAVYYCQQHAGIPVTFGQGTKVEIK

- Kd (hIL-1R3-His [4]): 0.761 nM
B4: Crossmab bispecific antibody, IL-1R3 arm (antibody, V domains shown)
VH: EVQLVESGGGLVQPGGSLRLSCAASGFTFSSYAMSWVRQAPGKGLVWVAEISRGGSHTYYPDTVTGRFTISRDNAKNTLYLQMNSLRAEDTAVYYCARSYGNYPFDYWGQGTTVTVSS
VL: EIVLTQSPATLSLSPGERATLSCSASSSVSYMYWYQQKPGQAPRLLIYDTSNLASGIPARFSGSGSGTDFTLTISSLEPEDFAVYYCQQWSSYPLTFGQGTKLEIK
